Experimental data as given in patent US11160886B2, “Method for labeling of sensitive and thermosensitive targeting biomolecules with technetium based compounds” (BRACCO IMAGING SPA, priority 2016, dated 2021).

What was measured:
αvβ3 integrins = format: in vivo, NOD/SCID mice; conditions: 120 min post injection
Procedure: Before injection, ^99mTc complexes were purified using a reversed-phase C18 Sep-Pack cartridge to remove the excess of unlabeled ligands. After purification, the activity recovered was further diluted with PBS to obtain a final solution that is <0.5% in EtOH content. The RCP and the stability of the purified complexes were evaluated prior to in vivo administration and for the succeeding 18 h.
Distribution in Tumor Bearing Mice.
Tumor uptake studies were performed on complex 9 in NOD/SCID mice to determine the effective capability of the complex to detect in vivo endogenously expressed αvβ3 integrins. For induction of tumor xenografts, M21 (αvβ3 positive) and M21L (αvβ3 negative) cells were subcutaneously injected at a concentration of 5×10^6 cells/mouse and allowed to grow until tumor of 3 mm is palpable. The solution containing the purified radiolabeled peptide (15 μCi/200 μL) was injected intravenously into the tail vein. The animals (n=5) were sacrificed by cervical dislocation at 2 h post injection. Tumors and other tissues (blood, heart, lung, liver, kidneys, stomach, intestine, muscle) were removed, weighed, and the activity was counted in a Nal well counter. The results were expressed as the percentage of injected activity per gram of tissue (% IA/g) and tumor to organ ratios were calculated.

Metabolites in the urine = format: in vivo, rats; conditions: urine at 2 and 4 h p.i.
Procedure: Metabolites in the Urine.
At 2 and 4 h p.i. the urine was collected directly from the bladder and analyzed by HPLC (FIG. 12).

[1] = system: αvβ3 positive M21 and αvβ3 negative M21L cell lines; experiment: Cell uptake and internalization; format: cell-based, human; conditions: M21 and M21L cells, 37° C., 90 min
Procedure: Cell Studies of complex 9 were conducted on M21 and M21L cells grown in RPMI1640 (Gibco Life Technologies). Expression of αvβ3 and of αvβ5 in the cells lines was analyzed by flow cytometry.
Cellular uptakes of the radiolabeled peptide, were assessed in suspension at 37° C. in human melanoma αvβ3 positive M21 and negative M21L cell lines. Preliminary studies were performed in order to set the experimental conditions to avoid cell damage and/or death during uptake experiments. […] Afterward, 1 ml of the cell suspension (1×10^6 cells/ml) was incubated with intermittent agitation with 10 μCi (10 μL) of ^99mTc complexes. At 90 min, the tubes were vortexed, the cells were transferred in Eppendorf microcentrifuge tube (1.5 ml) and the incubation was interrupted by centrifugation (3000 rpm for 5 min at 10° C.). […] After centrifugation (3000 rpm for 10 min at 10° C.) the supernatant was separated from the pellet, each fraction was collected, placed in a separated counting tube and the activity was determined using a counter (Cobra II, Packard) to determinate both the cell uptake and internalized fraction.
The uptake of complexes is expressed as percentage cell uptake of the total activity on 10^6 cells (% cell uptake/10^6 cells). […]

[2] = Isomeric conversion over 24 h at 37° C.; format: physicochemical
Procedure: Before the experiments for both complex 11 and complex 9, the two isomers were isolated by HPLC and their isomeric conversion was assessed over 24 h at 37° C.
In addition, a faster b vs a change was noticed. Therefore, for the radiolabeled peptide the mixture of the two isomeric forms in ratio 70/30 was directly utilized for receptor affinity studies.

## [^99mTc(N)(PNP3OH)(Cys-cRGDfK)]^+ [Complex 9]
αvβ3 integrins; M21 (αvβ3 positive) tumor, mice
  Tumor uptake: M21: 4.38±0.69 % IA/g
αvβ3 integrins; M21L (αvβ3 negative) tumor, mice
  Tumor uptake: M21L: 1.05 ± 0.62 % IA/g
αvβ3 integrins; tumor bearing mice
  Biodistribution: Blood: 0.03 ± 0.01 % IA/g
  Biodistribution: Heart: 0.44 ± 0.09 % IA/g
  Biodistribution: Intestine: 5.05 ± 1.24 % IA/g
  Biodistribution: Kidney: 3.19 ± 0.18 % IA/g
  Biodistribution: Liver: 3.87 ± 0.81 % IA/g
  Biodistribution: Lungs: 1.22 ± 0.25 % IA/g
  Biodistribution: Muscle: 0.20 ± 0.07 % IA/g
  Biodistribution: Spleen: 1.51 ± 0.22 % IA/g
  Biodistribution: Stomach: 0.96 ± 0.20 % IA/g
  M21/blood ratio: 146
  M21/liver ratio: 1.13
  M21/lung ratio: 3.59
  M21/muscle ratio: 21.9
Metabolites in the urine
  In vivo metabolism (urine HPLC, FIG. 12): remained stably incorporated into the structure of the final complex
[1]
  Recognition by molecular target (cellular uptake, FIG. 10): recognized by the corresponding molecular target
[2]
  Isomeric conversion a vs b: reversible a vs b and b vs a conversion
